# US20200407428A1 (GOVERNMENT OF THE UNITED STATES OF AMERICA AS REPRESENTED …, published 2020)
# Where a chain is given by its changes, count along the chain named.
# T1: Glycoprotein of Ravn virus in whole irradiated virus (Ravn virus, UniProt Q1PDC7 19-681)
# T1 sequence: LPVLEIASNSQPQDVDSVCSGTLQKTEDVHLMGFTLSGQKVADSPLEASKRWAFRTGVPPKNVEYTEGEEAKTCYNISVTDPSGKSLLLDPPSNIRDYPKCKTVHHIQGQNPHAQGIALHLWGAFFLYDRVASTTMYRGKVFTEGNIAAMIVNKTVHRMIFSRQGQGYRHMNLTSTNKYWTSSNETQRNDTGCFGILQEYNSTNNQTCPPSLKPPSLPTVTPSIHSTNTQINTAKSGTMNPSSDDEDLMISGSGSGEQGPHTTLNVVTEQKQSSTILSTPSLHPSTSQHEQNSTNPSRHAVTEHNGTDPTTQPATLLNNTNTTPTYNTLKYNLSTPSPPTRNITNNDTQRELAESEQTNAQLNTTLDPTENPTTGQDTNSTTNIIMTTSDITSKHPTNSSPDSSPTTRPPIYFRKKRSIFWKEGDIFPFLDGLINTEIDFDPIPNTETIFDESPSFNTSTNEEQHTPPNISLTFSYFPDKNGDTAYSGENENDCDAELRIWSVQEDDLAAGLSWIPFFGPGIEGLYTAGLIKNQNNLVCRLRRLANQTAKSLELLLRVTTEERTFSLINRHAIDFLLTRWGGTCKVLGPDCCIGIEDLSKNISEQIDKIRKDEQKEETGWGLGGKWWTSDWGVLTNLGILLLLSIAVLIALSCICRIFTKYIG
# T2: Glycoprotein of Marburg virus isolate Musoke in whole irradiated virus (Marburg virus, isolate Musoke, UniProt P35253 19-681)
# T2 sequence: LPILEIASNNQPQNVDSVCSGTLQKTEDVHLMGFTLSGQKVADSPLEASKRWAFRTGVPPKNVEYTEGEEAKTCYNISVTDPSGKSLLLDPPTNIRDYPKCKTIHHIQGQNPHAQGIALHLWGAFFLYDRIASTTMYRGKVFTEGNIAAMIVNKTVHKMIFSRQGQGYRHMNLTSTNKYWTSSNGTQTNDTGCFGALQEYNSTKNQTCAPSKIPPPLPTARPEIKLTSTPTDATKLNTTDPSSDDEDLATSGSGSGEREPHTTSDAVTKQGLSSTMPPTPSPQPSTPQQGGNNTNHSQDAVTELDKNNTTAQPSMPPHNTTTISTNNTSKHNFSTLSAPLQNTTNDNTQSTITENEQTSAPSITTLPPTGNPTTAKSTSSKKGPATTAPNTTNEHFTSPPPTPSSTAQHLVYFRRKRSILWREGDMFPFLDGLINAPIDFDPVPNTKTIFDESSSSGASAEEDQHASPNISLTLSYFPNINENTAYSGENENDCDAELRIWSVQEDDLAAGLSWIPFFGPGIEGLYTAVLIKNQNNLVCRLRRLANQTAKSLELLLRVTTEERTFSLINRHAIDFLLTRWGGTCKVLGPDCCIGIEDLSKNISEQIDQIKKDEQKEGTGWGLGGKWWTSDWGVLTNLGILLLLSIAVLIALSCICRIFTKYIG
# B1: R4B11 scFv-Fc (Fc fusion)
# VH: QVQLEQSGAEVREPGASVKVSCKASGLTSGSYAITWVRQAPGQGLEWMGVIIPLVGVTNYAEKFQGRVTFTADTSTSTAYMELTSLRSDDTATYYCARDPFCSGNGCYGYYDVWGPGVKVTVSS
# VL: DIELTQSPSSLSASVGDRVTITCRASQDISSWLAWYQQKPGKAPKLLISSASTLQSGVPSRFSGSGSGTDFTLTINSLQSEDFATYYCQQYNSVPLTFGGGTKVEMK
# B2: scFv R3C4 (scFv, V domains shown)
# VH: B1 VH with R12K, E13K, L27F, T35S, T84S, D89E, Y95F, F101Y, Y110W, K119L
# VL: DIELTQSPSSLSASVGDKVTISCRASQYIKSWLAWYQQKPGKAPKLLIYKASSLQSGVPSRFSGSGSGTDFTLTITNVQPEDFATYYCQQYDSAPFTFGPGTKLDIR
# B3: scFv R4B11 (scFv, V domains shown)
# VH: B1 VH
# VL: B1 VL
# B4: scFv R4G7 (scFv, V domains shown)
# VH: EVQLLESGGDLVQPGESLRLSCVVSGISFSNHGMTWVRQAPGKGLDWVSSIDSDGGGTFYADSVKGRFTISRDDSNNTVSLQMNSLRVEDTAVYYCAARHEYSDYYWGRGVPVTVSS
# VL: DIELTQSPSILSVSPGERATLSCRASQSVGNRLAWYHQRPGQAPRLLIYGASSRPTGIPDRFSASGSGTEFTLTISSLEPEDVGVYYCQQNSKWPLTFGGGTKVEIK
# B5: scFv R3H2 (scFv, V domains shown)
# VH: B4 VH with D10G, I27L, M34V, S53T, A61G, N76K, Q82E, H100Q
# VL: B4 VL with S9A, V13L, S22L, S28N, A64G, N91D, K93N, K103R
# B6: scFv R4H12 (scFv, V domains shown)
# VH: B4 VH with E1Q, D10G, I27L, M34V, S53T, A61G, N76K, Q82E, H100Q
# VL: B4 VL with D1E, I10T, N31S, R39S, V85L
# B7: scFv R4G8 (scFv, V domains shown)
# VH: EVQLVESGGGLVQPGESLRLSCVVSGLSFSNHGVTWVRQAPGKGLDWVSSIDTDGGGTFYGDSVKGRFTISRDNSKSTVSLEMNSLRVEDTAVYYCAARQEYSDYYWGRGVLVTVSS
# VL: B4 VL with S9A, V13L, S22L, S28N, A64G, N91D, K93N, K103R
# B8: scFv R4G11 (scFv, V domains shown)
# VH: B7 VH with E6Q, N74D, S77N, L112P
# VL: B4 VL with I10T, N31S, A64G, V85L
# Biological target: T1, Glycoprotein of Ravn virus in whole …
# Assay: Western blot on whole irradiated virus, reduced
row,Binder,binding result
1,B1,no binding (tested: 1 ug/ml)

# Biological target: T2, Glycoprotein of Marburg virus isolate …
# Assay: Western blot of scFv-Fc on whole irradiated virus, reduced
row,Binder,binding result
1,B1,binds

# Biological target: MARV Ci67 GP1-649 (Marburg virus, isolate Ci67)
# Assay: SPR (BIAcore 3000), GP1-649 amine-coupled on CM5, scFv in solution
Binder,Kd [nM],koff [s⁻¹],kon [M⁻¹ s⁻¹]
B2,33,0.000386,11600
B3,4.6,0.000407,87600
B4,4.6,0.000379,81900
B5,155,0.000993,6390
B6,3.9,0.000565,146000
B7,68,0.0063,92300
B8,6.3,0.000475,75000
